Paper PMC7595626

Target: His6-tagged Casp8p41 protein
Experiment: SPR; Casp8p41 immobilised on a CM5 chip (6000-7000 RU); BCL2 or phospho-S70-BCL2 flowed over; 25°C; 150 mM NaCl, 0.05 mM EDTA, 0.005% Polysorbate 20, 10 mM Hepes pH 7.4; steady state affinity fit, 1:1 model; Biacore T200

BCL2ΔTM-His6 (domain or fragment)
Kd: 260 nM

phospho-S70-BCL2 (domain or fragment)
Kd: 40 nM
